Here are results for 13 molecules from patent US8455427B2, “Methods of modifying insulin signaling using biliverdin reductase” (University of Rochester, priority 2005, dated 2013).

Where a chain is given by its changes, count along the chain named.

Assay type in all cases: biochemical
For assay [1], the target named is T1, insulin receptor tyrosine kinase (IRK) (Homo sapiens, UniProt P06213).
T1 construct: the 48 kDa cytoplasmic domain of the β-subunit of IRK; purchased Biomol International (Plymouth, Pa.)
T1 sequence (P06213 980-1382 limits assumed): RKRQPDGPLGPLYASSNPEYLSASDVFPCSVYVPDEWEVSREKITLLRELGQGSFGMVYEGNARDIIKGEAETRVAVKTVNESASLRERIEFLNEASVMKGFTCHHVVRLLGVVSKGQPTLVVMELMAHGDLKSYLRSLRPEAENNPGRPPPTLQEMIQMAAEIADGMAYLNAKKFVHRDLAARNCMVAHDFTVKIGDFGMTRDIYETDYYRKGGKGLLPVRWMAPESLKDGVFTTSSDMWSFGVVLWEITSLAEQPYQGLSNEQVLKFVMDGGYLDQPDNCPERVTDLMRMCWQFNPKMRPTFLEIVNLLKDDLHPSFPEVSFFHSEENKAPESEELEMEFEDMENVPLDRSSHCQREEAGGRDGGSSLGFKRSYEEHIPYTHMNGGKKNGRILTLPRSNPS
Kind of assay: BVR phosphorylation by the insulin receptor tyrosine kinase (IRK), in vitro [32P]-ATP assay. The following applies: for decrease of BVR phosphorylation by IRK caused by point mutation / BVR phosphorylation by IRK (tyrosine mutants, in words): mutant vs wtBVR, IRK 2 h at 30° C. The protocol: BVR phosphoiylation by the insulin receptor tyrosine kinase (IRK): Phosphorylation of BVR by IRK was examined using GST-HBVR fusion protein and the 48 kDa cytoplasmic domain of the β-subunit of IRK. BVR (5 μg) was incubated in 50 μl of IRK kinase buffer containing 50 mM HEPES (pH 8.0), 20 mM MgCl2, 1 mM DTT in the presence of 0.05 μg IRK and 10 μM ATP labeled with 10 μCi [γ-^32P]-ATP. The reaction was started with the addition of labeled ATP and incubated for 2-4 h. Reactions were terminated by addition of Laemmli sample buffer and boiled for 3 min. Samples were subjected to 8% SDS-PAGE and transferred to PVDF membranes for autoradiography.

Assay [2] has as its target T2, human BVR (Homo sapiens, UniProt P53004, A154S/E160D/G155D).
T2 construct: made in house
T2 sequence (P53004 1-296 A154S/G155D/E160D): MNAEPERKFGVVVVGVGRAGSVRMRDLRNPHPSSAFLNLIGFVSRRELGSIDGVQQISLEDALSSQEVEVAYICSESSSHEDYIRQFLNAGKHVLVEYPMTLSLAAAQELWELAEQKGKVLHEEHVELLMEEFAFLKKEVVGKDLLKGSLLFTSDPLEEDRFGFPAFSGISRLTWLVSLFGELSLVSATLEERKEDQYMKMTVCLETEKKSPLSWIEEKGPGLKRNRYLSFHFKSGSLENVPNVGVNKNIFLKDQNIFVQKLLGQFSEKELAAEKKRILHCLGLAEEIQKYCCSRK
Kind of assay: BVR autophosphorylation. The note with it: pH 8.4; 20 mM Zn acetate, also with Mn+2. The protocol:
(§1) BVR autophosphorylation and kinase activity: To detect autophosphorylation of BVR, GST-hBVR of wild type (wt) and mutant variants were incubated in 50 mM HEPES buffer (pH 8.4) in the presence of 30 mM MnCl2 and 1 mM DTT for 2 h at 30° C. The reaction was started with the addition of 10 μM ATP labeled with 10 μCi [γ-^32P]-ATP and was stopped with the addition of Laemmli sample buffer. Samples were boiled for 3 min and applied to a 8% SDS-PAGE gels, transferred to a PVDF membrane, and then visualized by autoradiography. To measure kinase activity, GST-BVR (5 μg) was incubated in 50 μl kinase buffer containing 50 mM HEPES buffer (pH 8.4), 20 mM MgCl2, 30 mM MnCl2, 1 mM DTT and 10 μM ATP labeled with 10 μCi [γ-^32P]-ATP in the presence of 5 μg substrates: IRS-1 or Raytide or poly glu/tyr (4:1) for 2 h at 30° C. The reaction was started with the addition of ATP and terminated by adding 120 μl 10% H3PO4. 100 μl aliquots were directly transferred to P81 Whatman filters which were subsequently washed extensively in 0.75% phosphoric acid at room temperature. Finally, the filters were submerged in acetone for 5 min, dried, and retained counts were measured using a Beckman LS 6500 liquid scintillation counter (Beckman Coulter, Fullerton, Calif.).

In assay [3] the target is T2, human BVR. Kind of assay: BVR kinase activity on substrates (IRS-1, IRS-1 peptides, Raytide, poly glu/tyr). The note with it: peptide as substrate of BVR, [γ-32P]-ATP. The protocol:
as §1

Assay [4] concerns human BVR. The description is as above. The following applies: protein tested as kinase for IRS; Mn+2 and Mg+2 present. The protocol:
as §1

The test system of assay [5] is human BVR. Kind of assay: BVR autophosphorylation. The note with it: pH 8.4, 30 mM MnCl2, 2 h, 30° C. As for the experimental part: as §1

In the case of `O=C(O)CN(CCN(CC(=O)O)CC(=O)O)CC(=O)O` [EDTA, reference compound], the “effect on phosphorylation of BVR by IRK” value in assay [1] (50 mM EDTA (pH 8.0), 30° C., 2 h, anti-phosphotyrosine blot) is on record as “abolished phosphorylation of BVR by IRK”.

For `O=c1c(-c2ccc(O)cc2)coc2cc(O)cc(O)c12` [Genestein, reference compound], the “effect on BVR phosphorylation mediated by IRK” value in assay [1] (genestein 200 μM, HEPES pH 8.0, 20 mM MgCl2) is reported as “significantly inhibited BVR phosphorylation mediated by IRK”.

For the molecule `CC(=O)[O-].CC(=O)[O-].[Zn+2]` [Zn^+2, Zn acetate, reference compound], at human BVR [2], the “effect of metal ion on BVR autophosphorylation” value was “inhibitory to BVR autophosphorylation”.

With “Arg-Thr-Glu-Ser^307-Ile-Thr-Ala-Thr-Ser^312-Pro-Ala-Ser^315-Met-Val-Gly-Gly-Lys-Pro (RTESITATSPASMVGGKP; peptide fragment of Homo sapiens Insulin Receptor Substrate (Peptide 2)) [IRS-1 peptide (#2), reference compound]”, the “phosphorylation of IRS-1 peptide by BVR” value with human BVR [3] was found to be 1198±230 cpm.

With “Lys-Lys-His-Ala-Asp-Asp-Gly-Ala-Met-Pro-Met-Ser^312-Pro-Gly-Val-Ala (KKHADDGAMPMSPGVA; mutant peptide fragment of Homo sapiens Insulin Receptor Substrate (Peptide 1)) [mutant IRS-1 peptide (#1), reference compound]”, the “phosphorylation of IRS-1 peptide by BVR” value with human BVR [3] is reported as 1049±78 cpm.

B1: HO-1: heme oxygenase isozyme, used as a control for kinase activity (protein, UniProt P09601 1-288, looked up)
Heme oxygenase 1: MERPQPDSMPQDLSEALKEATKEVHTQAENAEFMRNFQKGQVTRDGFKLVMASLYHIYVALEEEIERNKESPVFAPVYFPEELHRKAALEQDLAFWYGPRWQEVIPYTPAMQRYVKRLHEVGRTEPELLVAHAYTRYLGDLSGGQVLKKIAQKALDLPSSGEGLAFFTFPNIASATKFKQLYRSRMNSLEMTPAVRQRVIEEAKTAFLLNIQLFEELQELLTHDTKDQSPSRAPGLRQRASNKVQDSAPVETPRGKPPLNTRSQAPLLRWVLTLSFLVATVAVGLYAM
For B1, in the assay on human BVR [4], the IRS phosphorylation result is “did not significantly effect IRS phosphorylation”.

B2: Y^228: human BVR point mutant, NRYLS to NRFLS (protein, UniProt P53004 3-296, looked up, variant Y228F)
Biliverdin reductase A: AEPERKFGVVVVGVGRAGSVRMRDLRNPHPSSAFLNLIGFVSRRELGSIDGVQQISLEDALSSQEVEVAYICSESSSHEDYIRQFLNAGKHVLVEYPMTLSLAAAQELWELAEQKGKVLHEEHVELLMEEFAFLKKEVVGKDLLKGSLLFTAGPLEEERFGFPAFSGISRLTWLVSLFGELSLVSATLEERKEDQYMKMTVCLETEKKSPLSWIEEKGPGLKRNRFLSFHFKSGSLENVPNVGVNKNIFLKDQNIFVQKLLGQFSEKELAAEKKRILHCLGLAEEIQKYCCSRK
On to B2, for which, in the assay with human BVR [5], the “autophosphorylation of BVR mutants” value is listed as “did not result in significant changes in autophosphorylation of BVR”. Also, the “decrease of BVR phosphorylation by IRK caused by point mutation” value in assay [1] was 40%.

B3: G^17: human BVR point mutant in ATP binding domain, GVGRA to GVARA (protein, UniProt P53004 3-296, looked up, variant G17A)
Biliverdin reductase A: B2 Biliverdin reductase A with G15A, F226Y
With B3, in the assay on human BVR [4], the IRS phosphorylation entry was “for the most part, prevented IRS phosphorylation by BVR”.

B4: Y^198 plus Y^228: human BVR double mutant, DQFMK and NRFLS (protein, UniProt P53004 3-296, looked up, variant Y198F Y228F)
Biliverdin reductase A: B2 Biliverdin reductase A with Y196F
Regarding B4, the “BVR phosphorylation by IRK (tyrosine mutants, in words)” value in assay [1] is “little or no phosphorylation was detected”.

B5: Y^198 plus Y^291: human BVR double mutant, DQFMK and QKFCC (protein, UniProt P53004 3-296, looked up, variant Y198F Y291F)
Biliverdin reductase A: B2 Biliverdin reductase A with Y196F, F226Y, Y289F
Turning to B5, in assay [1], the “BVR phosphorylation by IRK (tyrosine mutants, in words)” value is listed as “little or no phosphorylation was detected”.

B6: Y^291: human BVR point mutant, QKYCC to QKFCC (protein, UniProt P53004 3-296, looked up, variant Y291F)
Biliverdin reductase A: B2 Biliverdin reductase A with F226Y, Y289F
B6: the “autophosphorylation of BVR mutants” value with human BVR [5] is “did not result in significant changes in autophosphorylation of BVR”. The “decrease of BVR phosphorylation by IRK caused by point mutation” value in assay [1] turned out to be 49%.

B7: T^202: human BVR point mutant, KMTVC to KMAVC (protein, UniProt P53004 3-296, looked up, variant T202A)
Biliverdin reductase A: B2 Biliverdin reductase A with T200A, F226Y
Regarding B7, the “autophosphorylation of BVR mutants” value in the assay on human BVR [5] is reported as “found to be a target of autophosphorylation”.

B8: HO-2: heme oxygenase isozyme, used as a control for kinase activity (protein, UniProt P30519 2-316, looked up)
Heme oxygenase 2: SAEVETSEGVDESEKKNSGALEKENQMRMADLSELLKEGTKEAHDRAENTQFVKDFLKGNIKKELFKLATTALYFTYSALEEEMERNKDHPAFAPLYFPMELHRKEALTKDMEYFFGENWEEQVQCPKAAQKYVERIHYIGQNEPELLVAHAYTRYMGDLSGGQVLKKVAQRALKLPSTGEGTQFYLFENVDNAQQFKQLYRARMNALDLNMKTKERIVEEANKAFEYNMQIFNELDQAGSTLARETLEDGFPVHDGKGDMRKCPFYAAEQDKGALEGSSCPFRTAMAVLRKPSLQFILAAGVALAAGLLAWYYM
With B8, the IRS phosphorylation entry in the assay on human BVR [4] was “did not significantly effect IRS phosphorylation”.
